Publication PMC12370899, “Promiscuous and multivalent interactions between Eps15 and partner protein Dab2 generate a complex interaction network” (Nature Communications, 2025)

B2: Eps15 EH123 (EH1-EH2-EH3, the full EH-domain containing region) (domain or fragment, human, UniProt P42566 1-310, looked up)
chain: MAAAAQLSLTQLSSGNPVYEKYYRQVDTGNTGRVLASDAAAFLKKSGLPDLILGKIWDLADTDGKGILNKQEFFVALRLVACAQNGLEVSLSSLNLAVPPPRFHDTSSPLLISGTSAAELPWAVKPEDKAKYDAIFDSLSPVNGFLSGDKVKPVLLNSKLPVDILGRVWELSDIDHDGMLDRDEFAVAMFLVYCALEKEPVPMSLPPALVPPSKRKTWVVSPAEKAKYDEIFLKTDKDMDGFVSGLEVREIFLKTGLPSTLLAHIWSLCDTKDCGKLSKDQFALAFHLISQKLIKGIDPPHVLTPEMIPP
notes: Eps15, UniProt P42566, the three N-terminal EH domains in row; in pET28-6His-GB1; 15N-labelled where it was the observed protein; source: E. coli Rosetta (DE3), purified (nickel column, TEV cleavage, SEC); not shown: 6His, N-terminal, cleaved; GB1, N-terminal, cleaved
B3: Dab2_(320–495) (domain or fragment, UniProt P98082 320-495, looked up)
chain: KKENSSSSSTPLSNGPLNGDVDYFGQQFDQISNRTGKQEAQAGPWPFSSSQTQPAVRTQNGVSEREQNGFSVKSSPNPFVGSPPKGLSIQNGVKQDLESSVQSSPHDSIAIIPPPQSTKPGRGRRTAKSSANDLLASDIFAPPVSEPSGQASPTGQPTALQPNPLDLFKTSAPAPV
notes: gene bought from Twist Bioscience, in pET28a; 15N-labelled where it was the observed protein; The S328C mutant was used only for microscopy of droplets and is not written; also called Dab2 fragment; source: E. coli Rosetta (DE3), purified (nickel column, SEC); not shown: His-tag, C-terminal, kept

Assays:
Conditions in all cases: both partners purified
Dab2_(320–495) = biological target: B3; test: NMR CPMG relaxation dispersion; 100 µM 15N Dab2(320-495) with 10 µM (10%) EH2; 600 and 900 MHz; 12 residues of helixN and the NPF motif fitted globally, two-site exchange model (ChemEx); NMR buffer pH 6, 25 °C
[1] = biological target: T1, Eps15IDR (Eps15's own intrinsically disordered region) (human, UniProt P42566 481-896); test: NMR titration; equimolar unlabelled Eps15IDR (200 µM) added to 200 µM 15N EH123; 1H-15N TROSY-HSQC CSPs and R1rho at 1200 MHz; NMR buffer pH 6, 25 °C
T1 construct: Eps15, UniProt P42566, C-terminal intrinsically disordered region; limits 481-896 from the N-terminal residues 481-521, the overlapping stretches 481-581 to 761-896 and the primer names Eps15_481_Nde1_fw and Eps15_896_Not1_rv; in pET28-6His-GB1; 15N-labelled where it was the observed protein; source: E. coli Rosetta (DE3), purified (nickel column, TEV cleavage, SEC); not shown: 6His, N-terminal, …
T1 sequence (looked up): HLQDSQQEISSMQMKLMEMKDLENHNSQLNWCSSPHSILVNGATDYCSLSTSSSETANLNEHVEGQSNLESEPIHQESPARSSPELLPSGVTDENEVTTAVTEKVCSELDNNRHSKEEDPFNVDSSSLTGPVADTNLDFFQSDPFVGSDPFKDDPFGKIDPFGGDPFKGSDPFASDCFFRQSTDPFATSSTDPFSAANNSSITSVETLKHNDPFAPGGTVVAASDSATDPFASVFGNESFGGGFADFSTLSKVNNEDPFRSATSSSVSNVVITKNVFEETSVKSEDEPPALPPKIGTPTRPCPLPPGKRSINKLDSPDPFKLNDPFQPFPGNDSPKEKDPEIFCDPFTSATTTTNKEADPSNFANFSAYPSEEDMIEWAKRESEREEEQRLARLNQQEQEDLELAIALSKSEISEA

[2] = biological target: B2; test: NMR titration; competition: equimolar EH123, Eps15IDR and Dab2(320-495) together, observed in turn on 15N EH123, 15N Eps15IDR and 15N Dab2(320-495); NMR buffer pH 6, 25 °C

B1: Eps15 EH2 domain (domain or fragment, human, UniProt P42566 121-215, looked up)
chain: PWAVKPEDKAKYDAIFDSLSPVNGFLSGDKVKPVLLNSKLPVDILGRVWELSDIDHDGMLDRDEFAVAMFLVYCALEKEPVPMSLPPALVPPSKR
notes: Eps15, UniProt P42566, second EH domain; in pET41c; The NdeI primer puts a start methionine before P121; non-cleavable C-terminal His-tag from pET41c; 15N-labelled where it was the observed protein; source: E. coli Rosetta (DE3), purified (nickel column, SEC); not shown: His-tag, C-terminal, kept
For B1, the Kd (Dab2_(320–495)) was 196 µM.

B2: binds [1].

B3: binds [2].
